Paper PMC9603416

Target: T1, RR07-6xHis (Streptococcus pneumoniae R6) (UniProt Q8DRF5)
T1 sequence: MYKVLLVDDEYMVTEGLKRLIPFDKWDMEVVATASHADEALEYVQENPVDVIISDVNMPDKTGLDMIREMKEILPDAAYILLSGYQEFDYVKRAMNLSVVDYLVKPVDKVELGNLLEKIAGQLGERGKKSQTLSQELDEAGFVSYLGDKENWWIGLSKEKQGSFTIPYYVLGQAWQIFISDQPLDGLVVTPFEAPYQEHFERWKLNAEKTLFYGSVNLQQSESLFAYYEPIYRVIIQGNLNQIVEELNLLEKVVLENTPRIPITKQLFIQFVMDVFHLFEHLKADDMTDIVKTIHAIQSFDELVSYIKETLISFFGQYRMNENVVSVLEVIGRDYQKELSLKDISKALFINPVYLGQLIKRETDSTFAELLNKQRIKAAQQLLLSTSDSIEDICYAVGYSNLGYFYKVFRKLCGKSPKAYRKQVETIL
Experiment: EMSA
Conditions: EMSA: 1 nM dsDNA probe, increasing RR07, binding buffer 20 mM Tris-Cl (rest of the buffer, pH and temperature not in the material)

Sequence	binding
TGCAAAACCTCCTGATTGCATTGTTATATTGATAGCGATTATATAAATCAACGCCTTTATTTTATTTCTTATATTAACGAGAGTCAAGAGGAGATGACAAAAAACTATAATAAGTATAAAAAAATATAAAATTTAAACTTAAGATTTCAGATTGGTCGAAAAAATACATATATATATCTAGTATAATTTTTGGTTCTATTTCTATAAAATATTCCACAAATTATAGAATCTTCCAAAAATAGGTAAGCGCTACCTTTTTGGTGTGGTATAATAAGC (double strand) [PstrH]	no binding
CACTGGTCTGGGGCACAAAGTAATTCATCCCAAAAGGCACGCCTGTGTATGGCAGGGTATTTCCCCGAGAGAAGGCATGCTTGCTAGCAGTACCAAAGCGGGTATCGATGGTTTCAAGTAGTGGTTTCATAGTCTTTCCTTTAGCTGTTTTTCTACATTATATCAGAAAAAGAGGGCCTTTAGAAAAGGAGTTTTAAAGATAACTATTTTGTAGAAAAATGACTATCATTTGTGTATGTATTTTCTGTCTCAAAAGCTATATACTGAACATGAAACTTGTTTGAAAGAGGGAATTGCACG (double strand) [Pgh125]	no binding
